Key:
HeLa Kyoto [1] = test: melting temperature (median over replicates), in situ; higher = more thermally stable
HeLa Kyoto [2] = test: solubility in G1/S (NP-40 vs SDS abundance) (log2 ratio); higher = more soluble; conditions: cell cycle stage: G1/S
HeLa Kyoto [3] = test: thermal stability score vs G1/S (z-score of summed log2 fold changes over temperatures); higher = more thermally stable than in G1/S
HeLa Kyoto [4] = test: solubility change mitosis vs G1/S (difference of NP-40 vs SDS log2 ratios) (log2 ratio difference); higher = more soluble in mitosis
[5] = cell cycle stage: early G1 (4.5 h after nocodazole release)
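Wherever melting temperature (median over replicates), in situ is given: HeLa Kyoto cells synchronized by double thymidine or nocodazole block, proteins quantified by TMT10plex mass spectrometry, three independent biological replicates.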
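Wherever solubility change mitosis vs G1/S (difference of NP-40 vs SDS log2 ratios) is given: synchronized HeLa Kyoto cells (double thymidine block for G1/S, nocodazole release for mitosis), protein amounts in NP-40 versus SDS lysates quantified by mass spectrometry, three biological replicates.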
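Wherever solubility in G1/S (NP-40 vs SDS abundance) is given: HeLa Kyoto cells arrested at G1/S by double thymidine block, proteins quantified by TMT10plex mass spectrometry in mild NP-40 versus SDS extracts, three biological replicates.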
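Wherever thermal stability score vs G1/S (z-score of summed log2 fold changes over temperatures) is given: synchronized HeLa Kyoto cells, proteins quantified by TMT10plex mass spectrometry, three biological replicates, mitosis taken 0.5 h after nocodazole release, G1/S directly after double thymidine block.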

| Substance | melting temperature (HeLa Kyoto [1]; cell cycle stage: G1/S) | melting temperature (HeLa Kyoto [1]; cell cycle stage: mitosis) | solubility in G1/S (log2) (HeLa Kyoto [2]) | thermal stability score (HeLa Kyoto [3]; [5]) | thermal stability score (HeLa Kyoto [3]; cell cycle stage: mitosis) | solubility change mitosis (log2) (HeLa Kyoto [4]) |
| --- | --- | --- | --- | --- | --- | --- |
| MATDWLGSIVSINCGDSLGVYQGRVSAVDQVSQTISLTRPFHNGVKCLVPEVTFRAGDITELKILEIPGPGDNQHFGDLHQTELGPSGAGCQVGINQNGTGKFVKKPASSSSAPQNIPKRTDVKSQDVAVSPQQQQCSKSYVDRHMESLSQSKSFRRRHNSWSSSSRHPNQATPKKSGLKNGQMKNKDDECFGDDIEEIPDTDFDFEGNLALFDKAAVFEEIDTYERRSGTRSRGIPNERPTRYRHDENILESEPIVYRRIIVPHNVSKEFCTDSGLVVPSISYELHKKLLSVAEKHGLTLERRLEMTGVCASQMALTLLGGPNRLNPKNVHQRPTVALLCGPHVKGAQGISCGRHLANHDVQVILFLPNFVKMLESITNELSLFSKTQGQQVSSLKDLPTSPVDLVINCLDCPENVFLRDQPWYKAAVAWANQNRAPVLSIDPPVHEVEQGIDAKWSLALGLPLPLGEHAGRIYLCDIGIPQQVFQEVGINYHSPFGCKFVIPLHSA [EDC3] | 50.1 °C | 50 °C | -0.0361 | 1.79 | 1.47 | 0.245 |
| MADEELEALRRQRLAELQAKHGDPGDAAQQEAKHREAEMRNSILAQVLDQSARARLSNLALVKPEKTKAVENYLIQMARYGQLSEKVSEQGLIEILKKVSQQTEKTTTVKFNRRKVMDSDEDDDY [PDCD5] | 54.3 °C | 52.3 °C | -0.112 | -5.9 | -7.32 | 0.568 |
| MAAQRRSLLQSEQQPSWTDDLPLCHLSGVGSASNRSYSADGKGTESHPPEDSWLKFRSENNCFLYGVFNGYDGNRVTNFVAQRLSAELLLGQLNAEHAEADVRRVLLQAFDVVERSFLESIDDALAEKASLQSQLPEGVPQHQLPPQYQKILERLKTLEREISGGAMAVVAVLLNNKLYVANVGTNRALLCKSTVDGLQVTQLNVDHTTENEDELFRLSQLGLDAGKIKQVGIICGQESTRRIGDYKVKYGYTDIDLLSAAKSKPIIAEPEIHGAQPLDGVTGFLVLMSEGLYKALEAAHGPGQANQEIAAMIDTEFAKQTSLDAVAQAVVDRVKRIHSDTFASGGERARFCPRHEDMTLLVRNFGYPLGEMSQPTPSPAPAAGGRVYPVSVPYSSAQSTSKTSVTLSLVMPSQGQMVNGAHSASTLDEATPTLTNQSPTLTLQSTNTHTQSSSSSSDGGLFRSRPAHSLPPGEDGRVEPYVDFAEFYRLWSVDHGEQSVVTAP [TAB1] | 49.4 °C | 49.7 °C | 0.302 | -0.0541 | 1.34 | -0.0812 |
| MREIVHIQAGQCGNQIGAKFWEVISDEHGIDPTGTYHGDSDLQLDRISVYYNEATGGKYVPRAILVDLEPGTMDSVRSGPFGQIFRPDNFVFGQSGAGNNWAKGHYTEGAELVDSVLDVVRKEAESCDCLQGFQLTHSLGGGTGSGMGTLLISKIREEYPDRIMNTFSVVPSPKVSDTVVEPYNATLSVHQLVENTDETYCIDNEALYDICFRTLKLTTPTYGDLNHLVSATMSGVTTCLRFPGQLNADLRKLAVNMVPFPRLHFFMPGFAPLTSRGSQQYRALTVPELTQQVFDAKNMMAACDPRHGRYLTVAAVFRGRMSMKEVDEQMLNVQNKNSSYFVEWIPNNVKTAVCDIPPRGLKMAVTFIGNSTAIQELFKRISEQFTAMFRRKAFLHWYTGEGMDEMEFTEAESNMNDLVSEYQQYQDATAEEEEDFGEEAEEEA [TUBB] | 56.4 °C | 54.4 °C | 0.245 | 0.696 | -1.83 | -0.117 |
| MSHPDYRMNLRPLGTPRGVSAVAGPHDIGASPGDKKSKNRSTRGKKKSIFETYMSKEDVSEGLKRGTLIQGVLRINPKKFHEAFIPSPDGDRDIFIDGVVARNRALNGDLVVVKLLPEEHWKVVKPESNDKETEAAYESDIPEELCGHHLPQQSLKSYNDSPDVIVEAQFDGSDSEDGHGITQNVLVDGVKKLSVCVSEKGREDGDAPVTKDETTCISQDTRALSEKSLQRSAKVVYILEKKHSRAATGFLKLLADKNSELFRKYALFSPSDHRVPRIYVPLKDCPQDFVARPKDYANTLFICRIVDWKEDCNFALGQLAKSLGQAGEIEPETEGILTEYGVDFSDFSSEVLECLPQGLPWTIPPEEFSKRRDLRKDCIFTIDPSTARDLDDALSCKPLADGNFKVGVHIADVSYFVPEGSDLDKVAAERATSVYLVQKVVPMLPRLLCEELCSLNPMSDKLTFSVIWTLTPEGKILDEWFGRTIIRSCTKLSYEHAQSMIESPTEKIPAKELPPISPEHSSEEVHQAVLNLHGIAKQLRQQRFVDGALRLDQLKLAFTLDHETGLPQGCHIYEYRESNKLVEEFMLLANMAVAHKIHRAFPEQALLRRHPPPQTRMLSDLVEFCDQMGLPVDFSSAGALNKSLTQTFGDDKYSLARKEVLTNMCSRPMQMALYFCSGLLQDPAQFRHYALNVPLYTHFTSPIRRFADVLVHRLLAAALGYRERLDMAPDTLQKQADHCNDRRMASKRVQELSTSLFFAVLVKESGPLESEAMVMGILKQAFDVLVLRYGVQKRIYCNALALRSHHFQKVGKKPELTLVWEPEDMEQEPAQQVITIFSLVEVVLQAESTALKYSAILKRPGTQGHLGPEKEEEESDGEPEDSSTS [DIS3L2] | 50.6 °C | 50.5 °C | -0.0925 | -0.153 | -0.198 | -0.1 |
| MFSKFTSILQHAVEALAPSLPLQEDFVYHWKAITHYYIETSDDKAPVTDTNIPSHLEQMLDILVQEENERESGETGPCMEYLLHHKILETLYTLGKADCPPGMKQQVLVFYTKLLGRIRQPLLPHINVHRPVQKLIRLCGEVLATPTENEEIQFLCIVCAKLKQDPYLVNFFLENKMKSLASKGVPNVISEDTLKGQDSLSTDTGQSRQPEELSGATGMEQTELEDEPPHQMDHLSTSLDNLSVTSLPEASVVCPNQDYNLVNSLLNLTRSPDGRIAVKACEGLMLLVSLPEPAAAKCLTQSTCLCELLTDRLASLYKALPQSVDPLDIETVEAINWGLDSYSHKEDASAFPGKRALISFLSWFDYCDQLIKEAQKTAAVALAKAVHERFFIGVMEPQLMQTSEMGILTSTALLHRIVRQVTSDVLLQEMVFFILGEQREPETLAEISRHPLRHRLIEHCDHISDEISIMTLRMFEHLLQKPNEHILYNLVLRNLEERNYTEYKPLCPEDKDVVENGLIAGAVDLEEDPLFTDISPENTLPNQEWLSSSPPATPDHPKNDGKTEVHKIVNSFLCLVPDDAKSSYHVEGTGYDTYLRDAHRQFRDYCAICLRWEWPGSPKALEKCNLEAAFFEGHFLKVLFDRMGRILDQPYDVNLQVTSVLSRLSLFPHPHIHEYLLDPYVNLAPGCRSLFSVIVRVVGDLMLRIQRIQDFTPKLLLVRKRLLGLEPEGPIIDHITLLEGVIVLEEFCKELAAIAFVKYHASSTP [FAM160B1] | 52.1 °C | 51.1 °C | 0.0585 | -0.501 | -0.078 | -0.212 |
| MSYTGFVQGSETTLQSTYSDTSAQPTCDYGYGTWNSGTNRGYEGYGYGYGYGQDNTTNYGYGMATSHSWEMPSSDTNANTSASGSASADSVLSRINQRLDMVPHLETDMMQGGVYGSGGERYDSYESCDSRAVLSERDLYRSGYDYSELDPEMEMAYEGQYDAYRDQFRMRGNDTFGPRAQGWARDARSGRPMASGYGRMWEDPMGARGQCMSGASRLPSLFSQNIIPEYGMFQGMRGGGAFPGGSRFGFGFGNGMKQMRRTWKTWTTADFRTKKKKRKQGGSPDEPDSKATRTDCSDNSDSDNDEGTEGEATEGLEGTEAVEKGSRVDGEDEEGKEDGREEGKEDPEKGALTTQDENGQTKRKLQAGKKSQDKQKKRQRDRMVERIQFVCSLCKYRTFYEDEMASHLDSKFHKEHFKYVGTKLPKQTADFLQEYVTNKTKKTEELRKTVEDLDGLIQQIYRDQDLTQEIAMEHFVKKVEAAHCAACDLFIPMQFGIIQKHLKTMDHNRNRRLMMEQSKKSSLMVARSILNNKLISKKLERYLKGENPFTDSPEEEKEQEEAEGGALDEGAQGEAAGISEGAEGVPAQPPVPPEPAPGAVSPPPPPPPEEEEEGAVPLLGGALQRQIRGIPGLDVEDDEEGGGGAP [AKAP8L] | 47.1 °C | 48.8 °C | -0.123 | 0.782 | 1.54 | 0.0856 |
| SPTAN1 | 53 °C | 51.5 °C | -0.956 | -0.312 | -1.93 | 0.485 |
| PARP4 | 50.7 °C | 49.8 °C | -0.0707 | 1.67 | 0.026 | -0.107 |
| MGALRPTLLPPSLPLLLLLMLGMGCWAREVLVPEGPLYRVAGTAVSISCNVTGYEGPAQQNFEWFLYRPEAPDTALGIVSTKDTQFSYAVFKSRVVAGEVQVQRLQGDAVVLKIARLQAQDAGIYECHTPSTDTRYLGSYSGKVELRVLPDVLQVSAAPPGPRGRQAPTSPPRMTVHEGQELALGCLARTSTQKHTHLAVSFGRSVPEAPVGRSTLQEVVGIRSDLAVEAGAPYAERLAAGELRLGKEGTDRYRMVVGGAQAGDAGTYHCTAAEWIQDPDGSWAQIAEKRAVLAHVDVQTLSSQLAVTVGPGERRIGPGEPLELLCNVSGALPPAGRHAAYSVGWEMAPAGAPGPGRLVAQLDTEGVGSLGPGYEGRHIAMEKVASRTYRLRLEAARPGDAGTYRCLAKAYVRGSGTRLREAASARSRPLPVHVREEGVVLEAVAWLAGGTVYRGETASLLCNISVRGGPPGLRLAASWWVERPEDGELSSVPAQLVGGVGQDGVAELGVRPGGGPVSVELVGPRSHRLRLHSLGPEDEGVYHCAPSAWVQHADYSWYQAGSARSGPVTVYPYMHALDTLFVPLLVGTGVALVTGATVLGTITCCFMKRLRKR [IGSF8] | 56.3 °C | 54.7 °C | -0.0809 | -2.98 | -1.56 | -0.0392 |
| MVLLAAAVCTKAGKAIVSRQFVEMTRTRIEGLLAAFPKLMNTGKQHTFVETESVRYVYQPMEKLYMVLITTKNSNILEDLETLRLFSRVIPEYCRALEENEISEHCFDLIFAFDEIVALGYRENVNLAQIRTFTEMDSHEEKVFRAVRETQEREAKAEMRRKAKELQQARRDAERQGKKAPGFGGFGSSAVSGGSTAAMITETIIETDKPKVAPAPARPSGPSKALKLGAKGKEVDNFVDKLKSEGETIMSSSMGKRTSEATKMHAPPINMESVHMKIEEKITLTCGRDGGLQNMELHGMIMLRISDDKYGRIRLHVENEDKKGVQLQTHPNVDKKLFTAESLIGLKNPEKSFPVNSDVGVLKWRLQTTEESFIPLTINCWPSESGNGCDVNIEYELQEDNLELNDVVITIPLPSGVGAPVIGEIDGEYRHDSRRNTLEWCLPVIDAKNKSGSLEFSIAGQPNDFFPVQVSFVSKKNYCNIQVTKVTQVDGNSPVRFSTETTFLVDKYEIL [ARCN1] | 51.7 °C | 51.8 °C | -0.104 | 1.07 | 0.0434 | -0.0987 |
| MNAARTGYRVFSANSTAACTELAKRITERLGAELGKSVVYQETNGETRVEIKESVRGQDIFIIQTIPRDVNTAVMELLIMAYALKTACARNIIGVIPYFPYSKQSKMRKRGSIVCKLLASMLAKAGLTHIITMDLHQKEIQGFFSFPVDNLRASPFLLQYIQEEIPNYRNAVIVAKSPDAAKRAQSYAERLRLGLAVIHGEAQCTELDMDDGRHSPPMVKNATVHPGLELPLMMAKEKPPITVVGDVGGRIAIIVDDIIDDVESFVAAAEILKERGAYKIYVMATHGILSAEAPRLIEESSVDEVVVTNTVPHEVQKLQCPKIKTVDISLILSEAIRRIHNGESMAYLFRNITVDD [PRPSAP1] | 55.6 °C | 54.6 °C | 0.0529 | -0.299 | -2.79 | -0.211 |
| TATDN1 | 56.1 °C | 56.4 °C | 0.194 | -1.11 | -2.1 | -0.119 |

Reference: the supplement of paper PMC5998384
